Assay results: patent publication US20230220081A1 (Xencor, published 2023)

Molecular target: T1, PD-1 on SEB-stimulated human T cells (human, UniProt Q15116 25-288)
T1 construct: whole, on cells; also called SEB-stimulated T cells
Test: flow cytometry on SEB-stimulated human PBMCs, APC anti-human kappa MFI on CD3-FITC+ cells
Description: Binding of anti-PD-1 clone 1C11 to T cells was measured in an SEB-stimulated PBMC assay. Staphylococcal Enterotoxin B (SEB) is a superantigen that causes T cell activation and proliferation in a manner similar to that achieved by activation via the T cell receptor (TCR), including expression of checkpoint receptors such as PD-1. Human PBMCs were stimulated with […] for 3 days. Following stimulation, PBMCs were incubated with the indicated test articles at indicated concentrations at 4° C. for 30 min. PBMCs were stained with anti-CD3-FITC (UCHT1) and APC labeled antibody for human immunoglobulin κ light chain. The binding of the test articles to T cells as indicated by APC MFI on FITC+ cells is depicted in FIG. 17.

T1 sequence (Q15116 25-288): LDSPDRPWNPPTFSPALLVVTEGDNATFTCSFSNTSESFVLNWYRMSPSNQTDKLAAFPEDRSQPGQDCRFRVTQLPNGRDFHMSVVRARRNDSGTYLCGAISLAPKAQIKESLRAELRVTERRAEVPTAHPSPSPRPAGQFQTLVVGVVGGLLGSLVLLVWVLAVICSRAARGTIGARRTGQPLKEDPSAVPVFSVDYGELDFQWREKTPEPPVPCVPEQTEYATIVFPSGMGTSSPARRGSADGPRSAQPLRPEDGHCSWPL

B1: XENP21575, chimeric anti-PD-1 antibody based on the variable regions of hybridoma clone 1C11 and human IgG1 with E233P/L234V/L235A/G236del/S267K substitutions … (antibody, V domains shown)
VH: QIQLVQSGPELKKPGETVKISCRASGYTFTHYGMNWVKQAPGKGLKWMGWINTYTGEPTYADDFKGRFAFSLETSASTAYLQINNLKNEDTATYFCARDYYGSSPYWGQGTTLTVSS
VL: DVLMTQTPLSLPVSLGDQASISCRSSQSIVHSNGNTYLEWYLQKPGQSPKLLIYKVSNRFSGVPDRFSGSGSGTDFTLKISRVEAEDLGVYYCFQGSHVPNTFGGGTKLEIKR
notes: Mouse hybridoma variable regions on human IgG1 with FcγR ablation substitutions (EU numbering); also called anti-PD-1 clone 1C11
Does B1 bind?
Result: binds
